Experimental data reported in patent US20120114667A1.

B1: 5B11 (antibody, IgG2, V domains shown)
VH: QVQLVESGGGVVQPGRSVRLSCAASGFTFSSYGMHWVRQTPGKGLEWVAIIWYDGGIEYYADSVKGRFTISRDNSKNTLYLQMNSLRAEDTAVYYCARDHRYGSSWFDYWGQGTLVTVSS
VL: DIQMTQSPSSLSASVGDRVTITCRASQGINNYLAWFQQKPGKAPKSLIYAASSLQSGVPSNFSGSGSGTDFTLSISSLQPEDFATYYCQQYKSYPLTFGGGTKVEIR
B2: 3C5 (antibody, IgG2, V domains shown)
VH: RVQLQESGPGLVKPSQTLSLTCTVSGGSIISGGYFWTWIRQHPGKGLEWIGYIYYSGSTYYSPSLKSRVTISVDTSKNQFSLKLSSVTAADTAVYYCTRAVPAAKGYYSYYGMDVWGQGTTVTVSS
VL: DIVMTQSPLSLPVTPGEPASISCRSSQSLLHSSGYNYLDWFLQKPGQSPQLLIYLSSNRASGVPDRFSGSGSGTDFTLKISRVEAEDVGVYYCMQALQTPFTFGPGTKVDIK

Target: avb3 and avb5 integrins on A375M cells
Experiment: cell-based or functional assay

Binder | Osteopontin Adhesion (% inhibition) at 5 ug/ml, A375M cells [%] | Vitronectin Adhesion (% inhibition) at 5 ug/ml, A375M cells [%]
B1 | 13 | 9
B2 | 3 | 10
